The text below walks through data of paper PMC3202462.

Assay [1] addresses E-domain of gephyrin (residues 309-750, P1 variant). In words: ITC. In general terms: In ITC the heat of successive injections is recorded.
Assay [2] has as its target GST-α1 T375D (mouse) (UniProt P62812). In words: far-Western, overlay or dot blot.
The target in assay [3] is GST-α1 T375E (mouse) (UniProt P62812). In words: far-Western, overlay or dot blot.
The target of assay [4] is GST fusion of the intracellular domain of the GABAAR α5 subunit. In words: far-Western, overlay or dot blot.
Assay [5] has as its target GST-α1 T375A (mouse) (UniProt P62812). In words: far-Western, overlay or dot blot.
Assay [6] addresses GST fusion of the intracellular loop of the GABAAR α2 subunit. In words: far-Western, overlay or dot blot.

The Kd is a measure of binding affinity in units of concentration. In general, stoichiometry N refers to a count of units in the complex or per binding partner. On to “6-His-tagged GABAAR α1 T375A cytoplasmic loop (domain or fragment)”, for which, in assay [1], the Kd came to 36 µM, the dH is -15 kcal/mol and the stoichiometry N is 0.64.

In assay [1], “6-His-tagged GABAAR α1 T375E cytoplasmic loop (domain or fragment)” gave a Kd of 183 µM and a stoichiometry N of 0.69.

Turning to “6-His-tagged GABAAR α1 cytoplasmic loop (M3-M4), wild type (domain or fragment)”, in assay [1], the Kd amounted to 17 µM and the stoichiometry N was 0.62.

As for “35S-methionine-labelled gephyrin, P1 isoform (natural protein)”, the gephyrin binding normalised to GST-α1 (100%) in assay [2] was found to be 68.9%; in assay [3], 62.5%. Further, the gephyrin binding, % of control in assay [4] is 12.9 % of control; in assay [5] it was 109 % of control. In addition, the gephyrin binding, % of GST-α1 in assay [6] is 43.7 % of GST-α1.
